Source: patent US20240252474A1, “METHODS AND COMPOSITIONS COMPRISING A CARDIO-TOLERATED HDAC INHIBITOR” (HUYABIO International, LLC, priority 2023, published 2024)

Assay: Phase 1b safety and tolerability of HBI-8000 combined with nivolumab (DLTs, TEAEs)
Type: in vivo
Procedure: The present example, was a Phase Ib/2 open-label dose finding study for HBI-8000 (also referred to in the art as “chidamide” or “tucidinostat” and also referred to herein as a compound of formula I) in combination with nivolumab in patients with advanced solid tumors, including melanoma, RCC (renal cell carcinoma), and NSCLC (non-small cell lung cancer). This study was conducted in accordance with Good Clinical Practice guidelines and the Declaration of Helsinki and with assurance/approval from the US Department of Health and Human Services; the protocol was approved by the institutional review boards or ethics committees of all participating sites. All patients provided written informed consent to participate before enrollment. […]
HBI-8000 at three dose levels (20 mg, 30 mg, and 40 mg) given orally twice a week (BIW) were evaluated. Doses were taken approximate 30 minutes after a meal. The starting dose (20 mg) was selected based on pharmacokinetic profiles established for monotherapy in Japanese patients with T-cell lymphoma.
The decision to escalate the dose was based on the conventional 3+3 design and observed incidences of dose-limiting toxicities (DLTs). Each treatment cycle was defined as 28 days. […] Subjects experiencing DLT within the first two weeks after having received 100% of assigned dose of HBI-8000 are also evaluable for DLT. Unacceptable toxicities were defined as grade 3 or higher non-hematologic and hematologic toxicities with clinical complications. Unacceptable toxicities observed over the first 28 days following HBI-8000 administration were considered as DLTs. […] HBI-8000 administration continued until disease progression or unacceptable toxicity was observed. The efficacy of the combination was further evaluated in an expanded cohort of selected patient populations at RP2D based on an objective response rate according to Response Evaluation Criteria in Solid Tumors (RECIST) version 1.1 criteria, progression-free survival, and duration of responses.
Safety evaluations included physical examinations, vital signs, ECGs, ECOG performance status, and laboratory tests.
Statistical analyses of safety, tolerability, and anti-tumor activity were primarily descriptive in nature. Toxicities were tabulated by type and grade. The safety population included all patients who received ≥1 dose of HBI-8000 and nivolumab. Continuous variables were summarized using descriptive statistics and categorical variables were summarized with number and percentage at each category. Pharmacokinetic parameters were derived using noncompartmental methods with Phoenix® WinNonlin® Version 6.4 (Certara, L. P., Princeton, NJ, USA).

[1] = 20 mg HBI-8000 BIW + nivolumab, N = 3
[2] = 30 mg HBI-8000 BIW + nivolumab, N = 7
[3] = 40 mg HBI-8000 BIW + nivolumab, N = 7

Nivolumab: fully human monoclonal antibody directed against PD-1 (marketed as OPDIVO) [reference compound]
Diarrhoea, Related Nivo, Any G [1]: 1 (33) n (%) | SAE related to Nivolumab alone, number of subjects [1]: 1 n | TEAE related to Nivolumab alone, number of subjects [1]: 2 n | TEAE resulting in discontinuation of Nivo alone, number of subjects [1]: 1 n | Weight decreased, Related Nivo, Any G [1]: 1 (33) n (%) | Back pain, Related Nivo, Any G [2]: 2 (29) n (%) | Dyspnoea, Related Nivo, Any G [2]: 1 (14) n (%) | Fall, Related Nivo, Any G [2]: 1 (14) n (%) | Hypoxia, Related Nivo, Any G [2]: 1 (14) n (%) | Lipase increased, Related Nivo, Any G [2]: 1 (14) n (%) | SAE related to Nivolumab alone, number of subjects [2]: 2 n | TEAE related to Nivolumab alone, number of subjects [2]: 6 n | TEAE resulting in discontinuation of Nivo alone, number of subjects [2]: 4 n | Diarrhoea, Related Nivo, Any G [3]: 1 (14) n (%) | SAE related to Nivolumab alone, number of subjects [3]: 1 n | TEAE related to Nivolumab alone, number of subjects [3]: 2 n | TEAE resulting in discontinuation of Nivo alone, number of subjects [3]: 2 n | SAE related to Nivolumab alone, number of subjects (Total, all dose levels, N = 17): 4 n | TEAE related to Nivolumab alone, number of subjects (Total, all dose levels, N = 17): 10 n | TEAE resulting in discontinuation of Nivo alone, number of subjects (Total, all dose levels, N = 17): 7 n
